Literature values in patent US6872537B1, “Assays for the detection of microtubule depolymerization inhibitors” (Regents of the University of California, priority 1998, dated 2005).

Details: literature values for comparison

Substance: p97: AAA ATPase cited for comparison [reference compound]
- ATPase activity of other AAA family members: 1 ATP/sec
